Data published in patent US8247168B2, “Regulation of gene expression by protein methylation” (University of Southern California, priority 1998, dated 2012).

Tests used:
Gal4 DBD-GRIP1c = biological target: T1, Gal4 DBD-GRIP1c (Mus musculus, UniProt Q61026); test: Reporter gene activation by Gal4 DBD-GRIP1c in transiently transfected CV-1 cells; format: cell-based; details: co-expression with Gal4 DBD-GRIP1c, dose-dependent
T1 construct: coding for Gal4 DBD-GRIP1c where GRIP1c is GRIP1 amino acids 1121-1462; expressed in transfected cells; host or cells: CV-1 cells
Experimental: A) CV-1 cells in 6-well dishes (3.3 cm diameter well) were transiently transfected with 0.5 of μg pM.GRIP1c (coding for Gal4 DBD-GRIP1c where GRIP1c is GRIP1 amino acids 1121-1462), 0.5 μg of GK1 reporter gene (luciferase gene controlled by Gal4 binding sites) (Webb, P. et al., (1998) Mol. Endocrinol. 12:1605), and 0-0.8 μg of pSG5.HA-CARM1, using Superfectin (Qiagen) according to manufacturer's protocol. Total DNA was adjusted to 2.0 μg per well with the appropriate amount of pSG5. Cell extracts were prepared approximately 48 h after transfection and assayed with Promega Luciferase Assay kit. Relative light units of luciferase activity presented are the mean and standard deviation of three transfected wells. B) CV-1 cells were transfected as in A with the indicated amount of pM.GRIP1c and zero or 0.5 μg of pSG5.HA-CARM1.
In transient transfections of CV-1 cells, Gal4 DBD-GRIP1c weakly activates expression of a reporter gene with a promoter containing Gal4 binding sites; co-expression of CARM1 enhances reporter gene activity in a dose-dependent manner and provides a maximum stimulation of more than 10-fold (FIG. 5). CARM1 expression has little if any effect on the activity of Gal4DBD alone (FIG. 6A). CARM1 also enhances the activity of full length GRIP1 fused to Gal4DBD.

hnRNPA1 = test: Methylation of hnRNP A1, SDS-PAGE and fluorography (FIG. 8C); format: biochemical, human; details: 0.083 mg/ml hnRNP-A1
Experimental: CARM1 and PRMT1 have different protein methyltransferase substrate specificities. CARM1 methylates histone H3, whereas PRMT1 methylates histone H4. […] (A,B) Calf thymus histones (Boehringer Mannheim) were incubated for 30 min at 30° C. in 32.5 μl reactions containing 20 mM Tris-Cl, 0.2 M NaCl, 4 mM EDTA, pH 8.0, 0.32 mg/ml individual histone (2a, 2b, 3, or 4) or 1.3 mg/ml mixed histone (M), 0.037 mg/ml GST-CARM1 or GST-PRMT1, and 7 μM S-adenosyl-L-[methyl-^3H]methionine (specific activity of 14.7 Ci/mmol). Reactions were stopped by addition of SDS-NuPAGE sample buffer (Novex), and 40% of each stopped reaction was then subjected to SDS-PAGE in 4-12% NuPAGE Bis-Tris gradient gels (Novex) using the Na-MES running buffer. Gels were stained with Coomassie Blue R-250 (A), and then subjected to fluorography (Chamberlin, M. (1978) Anal. Biochem. 98:132) for 12 h at −70° C. on sensitized Kodak XAR-5 film (B). Molecular weight markers (MW) are shown at left. Concentrations of GST fusion proteins were determined in comparison with bovine serum albumin standards (Sigma) by SDS polyacrylamide gel electrophoresis and Coomassie Blue staining; it was assumed that bovine serum albumin stained twice as intensely as most other proteins. Concentrations of histones and hnRNP A1 were determined by the method of Lowry (Lowry, O. H. et al. (1951) J. Biol. Chem. 193:265). […]

B1: CARM1: novel murine protein arginine methyltransferase and transcriptional coactivator, 608 amino acids (protein, listed as Mus musculus)
chain: MAAAAATAVGPGAGSAGVAGPGGAGPCATVSVFPGARLLTIGDANGEIQRHAEQQALRLEVRAGPDAAGIALYSHEDVCVFKCSVSRETECSRVGRQSFIITLGCNSVLIQFATPHDFCSFYNILKTCRGHTLERSVFSERTEESSAVQYFQFYGYLSQQQNMMQDYVRTGTYQRAILQNHTDFKDKIVLDVGCGSGILSFFAAQAGARKIYAVEASTMAQHAEVLVKSNNLTDRIVVIPGKVEEVSLPEQVDIIISEPMGYMLFNERMLESYLHAKKYLKPSGNMFPTIGDVHLAPFTDEQLYMEQFTKANFRYQPSFHGVDLSALRGAAVDEYFRQPVVDTFDIRILMAKSVKYTVNFLEAKEGDLHRIEIPFKFHMLHSGLVHGLAFWFDVAFIGSIMTVWLSTAPTEPLTHWYQVRCLFQSPLFAKAGDTLSGTCLLIANKRQSYDISIVAQVDQTGSKSSNLLDLKNPFFRYTGTTPSPPPGSHYTSPSENMWNTGSTYNLSSGVAVAGMPTAYDLSSVIAGGSSVGHNNLIPLANTGIVNHTHSRMGSIMSTGIVQGSSGAQGGGGSSSAHYAVNNQFTMGGPAISMASPMSIPTNTMHYGS
- maximum stimulation of reporter gene activity (Gal4 DBD-GRIP1c): more than 10 fold
- methylation of hnRNPA1 (hnRNPA1): not methylated
